From paper PMC11833248, “Evolutionary and Functional Analysis of Monoamine Oxidase F: A Novel Member of the Monoamine Oxidase Gene Family” (Genome Biology and Evolution, 2025) come the findings set out here.

Common to all, as to assay: purified protein
Holding throughout (conditions): 25 °C, 50 mM Hepes/NaOH pH 7.5, 0.5% v/v reduced Triton X-100

Substrate in series [1]: NCCc1c[nH]c2ccc(O)cc12
Substrate in series [2]: NCCc1ccccc1
The format is biochemical, Homo sapiens.

Substrate in series [3]: NCCC(=O)c1ccccc1N
Format: biochemical, Homo sapiens.

Substrate in series [4]: NCCc1ccc(O)cc1
The format is biochemical, Homo sapiens.

Substrate in series [5]: NCc1ccccc1

B1: Human MAOA (Homo sapiens) (protein)
chain: MENQEKASIAGHMFDVVVIGGGISGLSAAKLLTEYGVSVLVLEARDRVGGRTYTIRNEHVDYVDVGGAYVGPTQNRILRLSKELGIETYKVNVSERLVQYVKGKTYPFRGAFPPVWNPIAYLDYNNLWRTIDNMGKEIPTDAPWEAQHADKWDKMTMKELIDKICWTKTARRFAYLFVNINVTSEPHEVSALWFLWYVKQCGGTTRIFSVTNGGQERKFVGGSGQVSERIMDLLGDQVKLNHPVTHVDQSSDNIIIETLNHEHYECKYVINAIPPTLTAKIHFRPELPAERNQLIQRLPMGAVIKCMMYYKEAFWKKKDYCGCMIIEDEDAPISITLDDTKPDGSLPAIMGFILARKADRLAKLHKEIRKKKICELYAKVLGSQEALHPVHYEEKNWCEEQYSGGCYTAYFPPGIMTQYGRVIRQPVGRIFFAGTETATKWSGYMEGAVEAGERAAREVLNGLGKVTEKDIWVQEPESKDVPAVEITHTFWERNLPSVSGLLKIIGFSTSVTALGFVLYKYKLLPRS
notes: recombinant, overexpressed and purified by published protocols
Take B1: the Km in series [1] was found to be 1800 ± 100 µM; in series [2], 400 ± 100 µM; in series [3], 200 ± 20 µM; in series [4] it was 100 ± 20 µM. The kcat in series [1] was 3.777 ± 0.075 s⁻¹; in series [2] it was 0.803 ± 0.055 s⁻¹; in series [3], 1.39 ± 0.0383 s⁻¹; in series [4], 1.53 ± 0.07 s⁻¹. Also, the kcat/Km in series [1] was 2100 M⁻¹ s⁻¹; in series [2], 2010 M⁻¹ s⁻¹; in series [3], 6920 M⁻¹ s⁻¹; in series [4], 15300 M⁻¹ s⁻¹.

B2: Human MAOB (Homo sapiens) (protein)
chain: SNKCDVVVVGGGISGMAAAKLLHDSGLNVVVLEARDRVGGRTYTLRNQKVKYVDLGGSYVGPTQNRILRLAKELGLETYKVNEVERLIHHVKGKSYPFRGPFPPVWNPITYLDHNNFWRTMDDMGREIPSDAPWKAPLAEEWDNMTMKELLDKLCWTESAKQLATLFVNLCVTAETHEVSALWFLWYVKQCGGTTRIISTTNGGQERKFVGGSGQVSERIMDLLGDRVKLERPVIYIDQTRENVLVETLNHEMYEAKYVISAIPPTLGMKIHFNPPLPMMRNQMITRVPLGSVIKCIVYYKEPFWRKKDYCGTMIIDGEEAPVAYTLDDTKPEGNYAAIMGFILAHKARKLARLTKEERLKKLCELYAKVLGSLEALEPVHYEEKNWCEEQYSGGCYTTYFPPGILTQYGRVLRQPVDRIYFAGTETATHWSGYMEGAVEAGERAAREILHAMGKIPEDEIWQSEPESVDVPAQPITTTFLERHLPSVPGLLRLIGLTTIFSATALGFLAHKRGLLVRV
notes: as for B1
Take B2: the Michaelis-Menten constant (Km) came out at 350 ± 100 µM in series [5], 11 ± 1 µM in series [2], 52 ± 7 µM in series [3] and 400 ± 110 µM in series [4]. Moreover, the kcat is 0.738 ± 0.0833 s⁻¹ in series [5], 0.758 ± 0.0167 s⁻¹ in series [2], 0.485 ± 0.0167 s⁻¹ in series [3] and 0.742 ± 0.0833 s⁻¹ in series [4]. The kcat/Km in series [5] was 2100 M⁻¹ s⁻¹; in series [2], 68900 M⁻¹ s⁻¹; in series [3], 9300 M⁻¹ s⁻¹; in series [4] it was 1850 M⁻¹ s⁻¹.

The term Km denotes the substrate concentration at which the rate is half of its maximum. In general, kcat refers to the maximal rate divided by the concentration of active sites. A word on the kcat/Km: it is the second-order rate constant that governs catalysis at low substrate concentration.
